Measurements reported in the supplement of paper PMC7877785.
± gives the uncertainty stated by the source.

Assay: self-splicing fitness, log relative to wild type (ln ratio); higher = more splicing; Tetrahymena group I intron in knt gene, E. coli kanamycin selection, DiMSum; sequences stand for … in CUCUCU…GGAGGGAAAAGUUAUCAGGCAUGCACCUGGUAGCUAGUCUUUAAACCAAUAGAUUGCAUCGGUUUAAAAGGCAAGACCGUCAAAUUGCGGGAAAGGGGUCAACAGCCGUUCAGUACCAAGUCUCAGGGGAAACUUUGAGAUGGCCUUGCAAAGGGUAUGGUAAUAAGCUGACGGACAUGGUCCUAACCACGCAGCCAAGUCCUAAGUCAACAGAUCUUCUGUUGAUAUGGAUGCAGUUCACAGACUAAAUGUCGGUCGGGGAAGAUGUAUUCUUCUCAUAAGAUAUAGUCGGACCUCUCCUUAAUGGGAGCUAGCGGAUGAAGUGAUGCAACACUGGAGCCGCUGGGAACUAAUUUGUAUGCGAAAGUAUAUUGAUUAGUUUUGGAGUACUCGUGGUCG
In short: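 Pooled colonies went to amplicon sequencing on an Illumina HiSeq 2500 after six replicate transformations. The plates were LB agar with 100 μg/mL carbenicillin, 50 μM IPTG and 0.2% rhamnose, with or without 25 μg/mL kanamycin, incubated overnight at 37°C or 30°C. The E. coli BL21(DE3) library had all eight P1ex-region intron nucleotides randomised, the intron placed in the knt kanamycin-resistance gene on pET-22b(+). DiMSum fitness is the error-weighted combination of replicate fold changes, kanamycin against none, normalised to wild type.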

Sequence	self-splicing fitness (ln) (30 °C)	self-splicing fitness (ln) (37 °C)
CACCAGCAAUAUUACGCAUC	-2.88 ± 0.13	-3.35 ± 0.23
ACCCAGCAAUAUUACGUAGU	0.0959 ± 0.045	0.0745 ± 0.058
UACUAGCAAUAUUACGCGGG	-3.19 ± 0.22	-1.75 ± 0.2
CGUUAGCAAUAUUACGUGCU	-2.71 ± 0.2	-1.64 ± 0.21
AUAGAGCAAUAUUACGGACG	-2.69 ± 0.22	-0.981 ± 0.19
AUACAGCAAUAUUACGGGCG	-1.25 ± 0.077	-1.18 ± 0.11
GUGAAGCAAUAUUACGCGCC	-4.14 ± 0.33	-2.69 ± 0.41
CAGUAGCAAUAUUACGGUUG	-1.52 ± 0.065	-0.838 ± 0.083
GCUAAGCAAUAUUACGGGAC	-2.81 ± 0.13	-1.53 ± 0.14
CUGAAGCAAUAUUACGGAAC	–	-2.55 ± 0.3
GUACAGCAAUAUUACGAAUC	-2.65 ± 0.35	-1.18 ± 0.18
GGAUAGCAAUAUUACGGACG	-0.899 ± 0.13	-0.693 ± 0.17
GGCCAGCAAUAUUACGCGAG	–	-2.98 ± 0.35
AGUUAGCAAUAUUACGCCGC	-2.09 ± 0.38	–
GCAGAGCAAUAUUACGGGGU	-3.34 ± 0.23	-3.16 ± 0.31
UACUAGCAAUAUUACGGUUG	-2.18 ± 0.081	-1.06 ± 0.11
GCCCAGCAAUAUUACGGACA	-0.873 ± 0.12	-0.931 ± 0.13
CCCGAGCAAUAUUACGUACA	-2.87 ± 0.19	-2.25 ± 0.24
CGUCAGCAAUAUUACGGUUC	-3.67 ± 0.31	-0.0181 ± 0.15
CGUGAGCAAUAUUACGAUUA	–	-2.93 ± 0.25
UUGCAGCAAUAUUACGGCGG	-1.7 ± 0.081	-1.01 ± 0.11
GAGGAGCAAUAUUACGAUAC	-1.9 ± 0.18	-2.05 ± 0.38
CGAUAGCAAUAUUACGUUGC	-4.22 ± 0.34	-3.8 ± 0.22
UCUGAGCAAUAUUACGGGAU	-2.35 ± 0.18	-2.54 ± 0.24
CUGCAGCAAUAUUACGAGCG	-0.799 ± 0.093	0.667 ± 0.11
GUGAAGCAAUAUUACGCUAG	-0.945 ± 0.14	0.0205 ± 0.23
GUGUAGCAAUAUUACGCAUU	-2.29 ± 0.3	-1.97 ± 0.28

Sequence	self-splicing fitness (ln) (30 °C)	self-splicing fitness (ln) (37 °C)
GGCCAGCAAUAUUACGGAAU	-0.615 ± 0.057	-0.0748 ± 0.068
GCGUAGCAAUAUUACGGUUA	-0.359 ± 0.1	-0.119 ± 0.09
AGGCAGCAAUAUUACGACGG	-2.49 ± 0.16	-0.746 ± 0.22
GACUAGCAAUAUUACGUCAA	-2.55 ± 0.16	-2 ± 0.12
UAAAAGCAAUAUUACGUGUA	-1.86 ± 0.055	-0.743 ± 0.056
CAUCAGCAAUAUUACGGUUC	-2.65 ± 0.14	-0.935 ± 0.13
AUGCAGCAAUAUUACGACGU	-0.0321 ± 0.072	0.706 ± 0.083
CUGAAGCAAUAUUACGCCAA	-3.31 ± 0.41	–
GAGAAGCAAUAUUACGUGAG	-1.32 ± 0.058	-1.57 ± 0.1
ACAAAGCAAUAUUACGGUUU	-1.71 ± 0.076	-0.493 ± 0.083
GCGUAGCAAUAUUACGCUUA	–	-2.06 ± 0.32
UUCAAGCAAUAUUACGAAGG	-4.7 ± 0.41	-2.95 ± 0.26
UGGAAGCAAUAUUACGCAGA	-2.85 ± 0.21	-0.966 ± 0.14
CCACAGCAAUAUUACGUUAU	-4.08 ± 0.15	-2.66 ± 0.16
AAGAAGCAAUAUUACGUUCG	-0.932 ± 0.084	-0.625 ± 0.1
UUGCAGCAAUAUUACGUAAC	-3.38 ± 0.16	-2.81 ± 0.21
CCUCAGCAAUAUUACGCUUU	-3.07 ± 0.14	-2.79 ± 0.21
GACUAGCAAUAUUACGCUAG	-2.44 ± 0.31	-1.16 ± 0.26
CACUAGCAAUAUUACGACGA	-2.06 ± 0.16	-1.16 ± 0.17
GGGCAGCAAUAUUACGGCCA	0.461 ± 0.14	0.258 ± 0.17
AGGAAGCAAUAUUACGCUUC	-2.44 ± 0.28	–
UAUAAGCAAUAUUACGUUAU	-2.58 ± 0.19	-2.3 ± 0.28
AUGGAGCAAUAUUACGUACG	-3.38 ± 0.47	-2.58 ± 0.36
UGUGAGCAAUAUUACGUUCA	-3.06 ± 0.31	-1.56 ± 0.39
UCUCAGCAAUAUUACGUUCC	-2.72 ± 0.36	-0.417 ± 0.28
UUUAAGCAAUAUUACGACUA	0.0508 ± 0.11	-0.0992 ± 0.096
UAUGAGCAAUAUUACGCGGU	-3.41 ± 0.21	-2.68 ± 0.3

Sequence	self-splicing fitness (ln) (30 °C)	self-splicing fitness (ln) (37 °C)
AGCUAGCAAUAUUACGGACG	-0.719 ± 0.075	-0.105 ± 0.1
GAAGAGCAAUAUUACGGUCA	-2.72 ± 0.34	-2.05 ± 0.23
CAUUAGCAAUAUUACGCCAC	-2.71 ± 0.44	-2.41 ± 0.35
UUCCAGCAAUAUUACGUGGU	-3.26 ± 0.17	-2.08 ± 0.14
ACCAAGCAAUAUUACGUUAG	-3.94 ± 0.17	-2.83 ± 0.17
AGGUAGCAAUAUUACGAAUC	-3.462 ± 0.031	-2.2 ± 0.041
CACAAGCAAUAUUACGGCAG	-0.587 ± 0.051	-0.0731 ± 0.064
GUAAAGCAAUAUUACGAUGC	-0.312 ± 0.11	-0.105 ± 0.11
GUUGAGCAAUAUUACGCCUC	-2.09 ± 0.39	–
UCGUAGCAAUAUUACGAUAG	–	-3.12 ± 0.38
GACCAGCAAUAUUACGAAUG	-1.82 ± 0.071	-1.49 ± 0.088
UAUAAGCAAUAUUACGCAAG	-1.86 ± 0.23	0.725 ± 0.17
UAGCAGCAAUAUUACGUUUC	-2.78 ± 0.29	-1.85 ± 0.33
UGUUAGCAAUAUUACGGAGG	-2.3 ± 0.45	–
AAAGAGCAAUAUUACGUACU	-1.21 ± 0.14	-0.952 ± 0.15
AGGAAGCAAUAUUACGCGGC	–	-1.98 ± 0.44
GGAGAGCAAUAUUACGUAUU	-4.02 ± 0.31	-1.22 ± 0.16
GUAUAGCAAUAUUACGCGGU	–	-2.53 ± 0.44
UGCCAGCAAUAUUACGAAAG	-2.78 ± 0.13	-1.4 ± 0.15
ACGAAGCAAUAUUACGCACU	-0.656 ± 0.094	-0.172 ± 0.11
UGGUAGCAAUAUUACGACCA	-1.07 ± 0.18	-1.02 ± 0.2
CGGGAGCAAUAUUACGUUGG	-3.83 ± 0.22	-2.52 ± 0.2
GCGCAGCAAUAUUACGGGUA	-2.4 ± 0.13	-1.59 ± 0.1
GGGUAGCAAUAUUACGAUGG	-2.86 ± 0.24	-2.65 ± 0.37
GAAUAGCAAUAUUACGCGUC	-1.98 ± 0.23	0.15 ± 0.32
